The record followed here is the supplement of paper PMC5998384.

Data set [1] concerns HeLa Kyoto. The data set can be described thus: solubility change mitosis vs G1/S (difference of NP-40 vs SDS log2 ratios) (log2 ratio difference); higher = more soluble in mitosis.
Data set [2] concerns HeLa Kyoto. The data set can be described thus: solubility in G1/S (NP-40 vs SDS abundance) (log2 ratio); higher = more soluble. As to conditions: cell cycle stage: G1/S.
Data set [3] has as its system HeLa Kyoto. Description: thermal stability score vs G1/S (z-score of summed log2 fold changes over temperatures); higher = more thermally stable than in G1/S.
The subject of data set [4] is HeLa Kyoto. Description: melting temperature (median over replicates), in situ; higher = more thermally stable.
[5] abbreviates: cell cycle stage: early G1 (4.5 h after nocodazole release).
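For melting temperature (median over replicates), in situ in this document: HeLa Kyoto cells synchronized by double thymidine or nocodazole block, proteins quantified by TMT10plex mass spectrometry, three independent biological replicates.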
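For solubility change mitosis vs G1/S (difference of NP-40 vs SDS log2 ratios) in this document: synchronized HeLa Kyoto cells (double thymidine block for G1/S, nocodazole release for mitosis), protein amounts in NP-40 versus SDS lysates quantified by mass spectrometry, three biological replicates.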
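For solubility in G1/S (NP-40 vs SDS abundance) in this document: HeLa Kyoto cells arrested at G1/S by double thymidine block, proteins quantified by TMT10plex mass spectrometry in mild NP-40 versus SDS extracts, three biological replicates.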
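For thermal stability score vs G1/S (z-score of summed log2 fold changes over temperatures) in this document: synchronized HeLa Kyoto cells, proteins quantified by TMT10plex mass spectrometry, three biological replicates, mitosis taken 0.5 h after nocodazole release, G1/S directly after double thymidine block.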

As for “MVFYFTSSSVNSSAYTIYMGKDKYENEDLIKHGWPEDIWFHVDKLSSAHVYLRLHKGENIEDIPKEVLMDCAHLVKANSIQGCKMNNVNVVYTPWSNLKKTADMDVGQIGFHRQKDVKIVTVEKKVNEILNRLEKTKVERFPDLAAEKECRDREERNEKKAQIQEMKKREKEEMKKKREMDELRSYSSLMKVENMSSNQDGNDSDEFM [CCDC25]”, the “solubility change mitosis (log2)” value in data set [1] is -0.118. In data set [2], the “solubility in G1/S (log2)” value came to 0.0307. The thermal stability score was -0.0583 in data set [3] (setting [5]) and -0.134 in data set [3] (cell cycle stage: mitosis). Also, the melting temperature is 50.4 °C in data set [4] (cell cycle stage: G1/S) and 50.6 °C in data set [4] (cell cycle stage: mitosis).

Turning to “MVGREKELSIHFVPGSCRLVEEEVNIPNRRVLVTGATGLLGRAVHKEFQQNNWHAVGCGFRRARPKFEQVNLLDSNAVHHIIHDFQPHVIVHCAAERRPDVVENQPDAASQLNVDASGNLAKEAAAVGAFLIYISSDYVFDGTNPPYREEDIPAPLNLYGKTKLDGEKAVLENNLGAAVLRIPILYGEVEKLEESAVTVMFDKVQFSNKSANMDHWQQRFPTHVKDVATVCRQLAEKRMLDPSIKGTFHWSGNEQMTKYEMACAIADAFNLPSSHLRPITDSPVLGAQRPRNAQLDCSKLETLGIGQRTPFRIGIKESLWPFLIDKRWRQTVFH [MAT2B]”, the “solubility change mitosis (log2)” value in data set [1] was -0.0436. Also, the “solubility in G1/S (log2)” value in data set [2] is 0.344. Also, the thermal stability score in data set [3] (setting [5]) is -0.304; in data set [3] (cell cycle stage: mitosis) it was -1.94. Also, the melting temperature in data set [4] (cell cycle stage: G1/S) came to 55.5 °C; in data set [4] (cell cycle stage: mitosis) it was 56.3 °C.

“MVGVKPVGSDPDFQPELSGAGSRLAVVKFTMRGCGPCLRIAPAFSSMSNKYPQAVFLEVDVHQCQGTAATNNISATPTFLFFRNKVRIDQYQGADAVGLEEKIKQHLENDPGSNEDTDIPKGYMDLMPFINKAGCECLNESDEHGFDNCLRKDTTFLESDCDEQLLITVAFNQPVKLYSMKFQGPDNGQGPKYVKIFINLPRSMDFEEAERSEPTQALELTEDDIKEDGIVPLRYVKFQNVNSVTIFVQSNQGEEETTRISYFTFIGTPVQATNMNDFKRVVGKKGESH [TXNL1]”: the “solubility change mitosis (log2)” value in data set [1] was -0.112. In data set [2], the “solubility in G1/S (log2)” value came out at 0.258. Moreover, the thermal stability score in data set [3] (setting [5]) is -0.465; in data set [3] (cell cycle stage: mitosis) it was -0.0973. In addition, the melting temperature stood at 50.1 °C in data set [4] (cell cycle stage: G1/S) and 50.2 °C in data set [4] (cell cycle stage: mitosis).

In the case of “MVGYDPKPDGRNNTKFQVAVAGSVSGLVTRALISPFDVIKIRFQLQHERLSRSDPSAKYHGILQASRQILQEEGPTAFWKGHVPAQILSIGYGAVQFLSFEMLTELVHRGSVYDAREFSVHFVCGGLAACMATLTVHPVDVLRTRFAAQGEPKVYNTLRHAVGTMYRSEGPQVFYKGLAPTLIAIFPYAGLQFSCYSSLKHLYKWAIPAEGKKNENLQNLLCGSGAGVISKTLTYPLDLFKKRLQVGGFEHARAAFGQVRRYKGLMDCAKQVLQKEGALGFFKGLSPSLLKAALSTGFMFFSYEFFCNVFHCMNRTASQR [SLC25A19]”, in data set [1], the “solubility change mitosis (log2)” value is -0.0971. Further, the “solubility in G1/S (log2)” value in data set [2] is -0.155. Also, the thermal stability score in data set [3] (setting [5]) was -0.746; in data set [3] (cell cycle stage: mitosis), -1.27. Further, the results for the melting temperature in data set [4] (cell cycle stage: G1/S) and in data set [4] (cell cycle stage: mitosis) were 56.4 °C and 55.6 °C, respectively.

With “MVHQVLYRALVSTKWLAESIRTGKLGPGLRVLDASWYSPGTREARKEYLERHVPGASFFDIEECRDTASPYEMMLPSEAGFAEYVGRLGISNHTHVVVYDGEHLGSFYAPRVWWMFRVFGHRTVSVLNGGFRNWLKEGHPVTSEPSRPEPAVFKATLDRSLLKTYEQVLENLESKRFQLVDSRSQGRFLGTEPEPDAVGLDSGHIRGAVNMPFMDFLTEDGFEKGPEELRALFQTKKVDLSQPLIATCRKGVTACHVALAAYLCGKPDVAVYDGSWSEWFRRAPPESRVSQGKSEKA [TST]”, the “solubility change mitosis (log2)” value in data set [1] is -0.0824. For the same sequence, the “solubility in G1/S (log2)” value in data set [2] worked out at 0.187. In addition, the values for the thermal stability score in data set [3] (setting [5]) and in data set [3] (cell cycle stage: mitosis) were 5.41 and 3.98, respectively. Moreover, the melting temperature in data set [4] (cell cycle stage: G1/S) came to 48.3 °C; in data set [4] (cell cycle stage: mitosis), 49.3 °C.
